{"source": "paper PMC9407465", "proteins": {"B1": {"name": "Gli2 (GLI family zinc finger 2): S355A (protein)", "parent chain": "METSAPAPALEKKEAKSGLLEDSSFPDPGKKACPLAVAAAVAAHGVPQQLLPAFHAPLPIDMRHQEGRYHYDPHSVHSVHGPPTLSGSPVISDISLIRLSPHPAGPGESPFSAHHPYVNPHMEHYLRSVHSSPTLSMISAARGLSPADVAHEHLKERGLFSLAAPGTNPSDYYHQMTLMASHPTPYGDLLMQSGGAASAPHLHDYLNPVDASRFSSPRVTPRLSRKRALSISPLSDASLDLQRMIRTSPNSLVAYINNSRSSSAASGSYGHLSAGALSPAFTFPHPINPVAYQQILSQQRGLGSAFGHTPPLIQPSPTFLAQQPMTLTSISTMPTQLSSSSSNCLNDANQNKQNSESAVSSTVNPITIHKRSKVKTEAEGLRPASPLGLTQEQLADLKEDLDRDDCKQEAEVVIYETNCHWADCTKEYDTQEQLVHHINNEHIHGEKKEFVCRWQACTREQKPFKAQYMLVVHMRRHTGEKPHKCTFEGCSKAYSRLENLKTHLRSHTGEKPYVCEHEGCNKAFSNASDRAKHQNRTHSNEKPYICKIPGCTKRYTDPSSLRKHVKTVHGPDAHVTKKQRNDVHVRAPLLKENGDNEASAEPGGRGPEESVEASSTSHTVEDCLHIKAIKTESSGLCQSSPGAQSSCSSEPSPLGSAPNNDSGMEMPGTGPGSLGDLTALADTCPGADTSALAAPSTGGLQLRKHMSTVHRFEQLKREKLKSLKDSCSWAGPAPHTRNTKLPPLPVNGSVLENFNNTGGGGPAGLLPSQRLPELTEVTMLSQLQERRDSSTSTMSSAYTVSRRSSGISPYFSSRRSSEASPLGGLRPHNASSADSYDPISTDASRRSSEASQCSGGGPGLLNLTPAQQYNLRAKYAAATGGPPPTPLPGLDRVSLRTRLALLDAPERALPGACPHPLGPRRGSDGPTYSHGHGHGYAGAAPAFPHEGPNSSTRRASDPVRRPDPLILPRVQRFHSTHNMNPGSLPPCADRRGLHVQSHPSVDSNLTRNAYSPRPPSINENVVMEAVAAGVDGPGLECDLGLVEDELVLPDDVVQYIKAHTGGTLDDGIRQGYPTEGTGFPENSKLPSPGLQGHRRLAAADSNMGPSAPGLGGCQLSYSPSSNLNKSNMPVQWNEVSSGTVDALPTQVKPPPFPHSNLAVVQQKPAFGQYPGYNPQSVQSSSGGLDSTQPHLQLRGAPSASRGSYTQQPRQPAAGSQCLGMSAAMSPQASYSQAHPQLSPNIVSGSLNQFSPSCSNMAAKPSHLGLPQQMEVVPNATIMNGHQREHGVPNSSLAAVSQPHPVLSYPQQDSYQQGSNLLSSHQPGFMESQQNAGFGLMQPRPPLEPNTASRHRGVRSGQQQLYARTTGQAMVTSANQETAEAMPKGPAGTMVSLAPQPSQDTGRAQDQNTLYYYGQIHMYEQNGGCPAVQPQPPQPQACSDSIQPEPLPSPGVNQVSSTVDSQLLEPPQIDFDAIMDDGDHSSLFSGALSPTLLHNLSQNSSRLTTPRNSLTLPSIPAGISNMAVGDMSSMLTSLAEESKFLNMMT"}, "B2": {"name": "Gli2 (GLI family zinc finger 2): OGT overexpression (protein)", "parent chain": "B1 parent chain"}, "B3": {"name": "Gli2 (GLI family zinc finger 2): S355D (protein)", "parent chain": "B1 parent chain"}, "B4": {"name": "Gli2 (GLI family zinc finger 2): SmoM2Atoh1;OGTAtoh1 (OGT knockout in GNPs) (protein)", "parent chain": "B1 parent chain"}, "B5": {"name": "Gli2 (GLI family zinc finger 2): OSMI-1 (protein)", "parent chain": "B1 parent chain"}, "B6": {"name": "human GLI2: S358A (protein)", "parent chain": "METSASATASEKQEAKSGILEAAGFPDPGKKASPLVVAAAAAAAVAAQGVPQHLLPPFHAPLPIDMRHQEGRYHYEPHSVHGVHGPPALSGSPVISDISLIRLSPHPAGPGESPFNAPHPYVNPHMEHYLRSVHSSPTLSMISAARGLSPADVAQEHLKERGLFGLPAPGTTPSDYYHQMTLVAGHPAPYGDLLMQSGGAASAPHLHDYLNPVDVSRFSSPRVTPRLSRKRALSISPLSDASLDLQRMIRTSPNSLVAYINNSRSSSAASGSYGHLSAGALSPAFTFPHPINPVAYQQILSQQRGLGSAFGHTPPLIQPSPTFLAQQPMALTSINATPTQLSSSSNCLSDTNQNKQSSESAVSSTVNPVAIHKRSKVKTEPEGLRPASPLALTQGQVSGHGSCGCALPLSQEQLADLKEDLDRDDCKQEAEVVIYETNCHWEDCTKEYDTQEQLVHHINNEHIHGEKKEFVCRWQACTREQKPFKAQYMLVVHMRRHTGEKPHKCTFEGCSKAYSRLENLKTHLRSHTGEKPYVCEHEGCNKAFSNASDRAKHQNRTHSNEKPYICKIPGCTKRYTDPSSLRKHVKTVHGPDAHVTKKQRNDVHLRTPLLKENGDSEAGTEPGGPESTEASSTSQAVEDCLHVRAIKTESSGLCQSSPGAQSSCSSEPSPLGSAPNNDSGVEMPGTGPGSLGDLTALDDTPPGADTSALAAPSAGGLQLRKHMTTMHRFEQLKKEKLKSLKDSCSWAGPTPHTRNTKLPPLPGSGSILENFSGSGGGGPAGLLPNPRLSELSASEVTMLSQLQERRDSSTSTVSSAYTVSRRSSGISPYFSSRRSSEASPLGAGRPHNASSADSYDPISTDASRRSSEASQCSGGSGLLNLTPAQQYSLRAKYAAATGGPPPTPLPGLERMSLRTRLALLDAPERTLPAGCPRPLGPRRGSDGPTYGHGHAGAAPAFPHEAPGGGARRASDPVRRPDALSLPRVQRFHSTHNVNPGPLPPCADRRGLRLQSHPSTDGGLARGAYSPRPPSISENVAMEAVAAGVDGAGPEADLGLPEDDLVLPDDVVQYIKAHASGALDEGTGQVYPTESTGFSDNPRLPSPGLHGQRRMVAADSNVGPSAPMLGGCQLGFGAPSSLNKNNMPVQWNEVSSGTVDALASQVKPPPFPQGNLAVVQQKPAFGQYPGYSPQGLQASPGGLDSTQPHLQPRSGAPSQGIPRVNYMQQLRQPVAGSQCPGMTTTMSPHACYGQVHPQLSPSTISGALNQFPQSCSNMPAKPGHLGHPQQTEVAPDPTTMGNRHRELGVPDSALAGVPPPHPVQSYPQQSHHLAASMSQEGYHQVPSLLPARQPGFMEPQTGPMGVATAGFGLVQPRPPLEPSPTGRHRGVRAVQQQLAYARATGHAMAAMPSSQETAEAVPKGAMGNMGSVPPQPPPQDAGGAPDHSMLYYYGQIHMYEQDGGLENLGSCQVMRSQPPQPQACQDSIQPQPLPSPGVNQVSSTVDSQLLEAPQIDFDAIMDDGDHSSLFSGALSPSLLHSLSQNSSRLTTPRNSLTLPSIPAGISNMAVGDMSSMLTSLAEESKFLNMMT"}, "B7": {"name": "human GLI2: OSMI-1 (protein)", "parent chain": "B6 parent chain"}, "B8": {"name": "human GLI2: S358D (protein)", "parent chain": "B6 parent chain"}}, "key": {"[1]": {"test": "IP and acetylation immunoblot"}, "[2]": {"test": "luciferase reporters", "conditions": "glycan lost"}, "[3]": {"test": "Bcl2 promoter luciferase, HEK293T", "conditions": "WT Gli2"}, "[4]": {"test": "IP immunoblot from P30 cerebellum", "conditions": "glycan lost; control: SmoM2Atoh1 mice"}, "[5]": {"test": "Gli2 level in primary GNPs", "conditions": "glycan lost; control: untreated GNPs"}, "[6]": {"test": "GLI2 level in Daoy cells", "conditions": "glycan lost; control: DMSO"}}, "data": [{"protein": "B1", "values": [{"measurement": "other: Gli2 acetylation", "setting": "[1]; glycan lost, control: wild type Gli2", "value": "increases"}, {"measurement": "other: transcriptional activity", "setting": "[2]; control: wild type Gli2", "value": "decreases"}]}, {"protein": "B2", "values": [{"measurement": "other: Gli2 acetylation", "setting": "[1]; glycan gained, control: without OGT overexpression", "value": "decreases"}, {"measurement": "other: transcriptional activity", "setting": "[3]; glycan gained, control: pEGFP-C1 vector", "value": "increases"}]}, {"protein": "B3", "values": [{"measurement": "other: transcriptional activity", "setting": "[2]; control: wild type Gli2", "value": "decreases"}]}, {"protein": "B4", "values": [{"measurement": "other: Gli2 acetylation", "setting": "[4]", "value": "increases"}]}, {"protein": "B5", "values": [{"measurement": "other: Gli2 acetylation", "setting": "[1]; glycan lost, control: untreated, WT Gli2", "value": "increases"}, {"measurement": "expression_or_secretion", "setting": "[5]", "value": "decreases"}, {"measurement": "other: transcriptional activity", "setting": "[3]; glycan lost, control: DMSO", "value": "decreases"}]}, {"protein": "B6", "values": [{"measurement": "other: transcriptional activity", "setting": "[2]; control: wild type GLI2", "value": "decreases"}]}, {"protein": "B7", "values": [{"measurement": "expression_or_secretion", "setting": "[6]", "value": "decreases"}]}, {"protein": "B8", "values": [{"measurement": "other: transcriptional activity", "setting": "[2]; control: wild type GLI2", "value": "decreases"}]}]}
